Results taken from publication PMC5937170.

How the values were obtained:
Settings in all cases: EMSA: 15 ul, 70 C for 15 min, buffer per Ochs et al. 2012 (not given), 8% native PAGE; footprint: same binding conditions, DNase I at 37 C
[1] = molecular target: T1, TFB-RF1;TBP;TFB (Pyrococcus furiosus;Pyrococcus furiosus?;Pyrococcus furiosus?) (UniProt Q8U1W6+P62000+P61998); experiment: EMSA
T1 sequence 1: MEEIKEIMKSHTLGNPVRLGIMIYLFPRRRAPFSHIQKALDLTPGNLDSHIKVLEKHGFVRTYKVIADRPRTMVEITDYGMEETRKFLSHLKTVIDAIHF
T1 sequence 2: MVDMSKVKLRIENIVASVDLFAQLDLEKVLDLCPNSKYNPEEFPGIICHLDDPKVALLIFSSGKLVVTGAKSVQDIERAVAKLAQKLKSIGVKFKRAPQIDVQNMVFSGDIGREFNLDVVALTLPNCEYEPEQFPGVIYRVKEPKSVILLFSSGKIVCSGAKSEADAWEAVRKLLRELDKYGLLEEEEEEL
T1 sequence 3: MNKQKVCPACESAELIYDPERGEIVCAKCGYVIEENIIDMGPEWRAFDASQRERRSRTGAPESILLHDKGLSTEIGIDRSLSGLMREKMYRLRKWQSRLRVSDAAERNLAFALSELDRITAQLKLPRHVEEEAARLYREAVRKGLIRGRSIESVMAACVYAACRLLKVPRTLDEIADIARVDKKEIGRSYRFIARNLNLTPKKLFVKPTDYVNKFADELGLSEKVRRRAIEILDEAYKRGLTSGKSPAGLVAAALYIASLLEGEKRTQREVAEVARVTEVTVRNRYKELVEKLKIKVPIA

[2] = molecular target: T2, TFB-RF1 (Pyrococcus furiosus) (UniProt Q8U1W6); experiment: EMSA
T2 sequence: T1 sequence 1

[3] = molecular target: T2, TFB-RF1 (Pyrococcus furiosus); experiment: DNase I footprinting

Sequence	binding [1]	binding [2]	binding [3]
ACTATTTTGGAAATTAGTTAAAGCTTCTAAAAAAGCTTGTTGTTTTTCTGGGATTCAGACGGATTATTTACAAAAAAGGAAAGGAATATTGGTAGCTATA (double strand) [pf1011/1012 promoter region (EMSA)]	binds	binds	
ACTATTTTGGAAATTAGTTAAAGCTTCTAAAAAAGCTTGTTGTTTTTCTGGGATTCAGACGGATTATTTACAAAAAAGGAAAGGAATATTGGTAGCTATA (double strand) [pf1011/1012 promoter region (footprint)]			binds
